# From article doi:10.1101/2023.06.03.543554 (bioRxiv, 2023)
# T1: human G-protein coupled receptor 1 (GPR1), FLAG-BRIL fusion construct for cryo-EM (human, UniProt P46091 1-355)
# T1 sequence: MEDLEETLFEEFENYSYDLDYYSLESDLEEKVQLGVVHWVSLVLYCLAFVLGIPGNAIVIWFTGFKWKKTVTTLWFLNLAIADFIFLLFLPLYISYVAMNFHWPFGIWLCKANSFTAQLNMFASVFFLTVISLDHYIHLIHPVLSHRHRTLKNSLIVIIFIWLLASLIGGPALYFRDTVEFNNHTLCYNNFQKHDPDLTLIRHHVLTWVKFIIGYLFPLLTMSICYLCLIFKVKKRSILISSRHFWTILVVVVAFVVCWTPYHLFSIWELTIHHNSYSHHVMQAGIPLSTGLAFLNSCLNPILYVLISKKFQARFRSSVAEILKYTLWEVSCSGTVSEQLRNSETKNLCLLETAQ
# Molecular target: T1, human G-protein coupled receptor 1 …
# Experiment: cryo-EM structure
binder,measurement,value
full-length chemerin (21-157) (ligand) ELTEAQRRGLQVALEEFHKHPPVQWAFQETSVESAVDTPFPAGIFVRLEFKLQQTSCRKRDWKKPECKVRPNGRKRKCLACIKLGSEDKVLGRLVHCPIETQVLREAEEHQETQCLRVQRAGEDPHSFYFPGQFAFS,binding result,binds
